Source: FireProtDB (doi:10.1016/s0014-5793(98)01666-4)

B1: Parvalbumin alpha, P02625 (parent)
chain: MSMTDLLSAEDIKKAIGAFTAADSFDHKKFFQMVGLKKKSADDVKKVFHILDKDKSGFIEEDELGSILKGFSSDARDLSAKETKTLMAAGDKDGDGKIGVEEFSTLVAES

Variants of: B1
Conditions: Rattus norvegicus; pH 7.4; Thermal; DSC; EDTA 10 mM; NaCl 0.20 M; transition: 2; reversible: yes; structure 1RTP; whole UniProt chain shown
With E109S the Tm was 41.8 °C, the “unfolding enthalpy (calorimetric)” value was 62 kcal/mol and the “unfolding enthalpy (van 't Hoff)” value was 63 kcal/mol.
